Reference: patent US20260242504A1 (published 2026)

T1: recombinant human 5T4 protein (5T4/His) (UniProt Q13641 32-355)
T1 chain: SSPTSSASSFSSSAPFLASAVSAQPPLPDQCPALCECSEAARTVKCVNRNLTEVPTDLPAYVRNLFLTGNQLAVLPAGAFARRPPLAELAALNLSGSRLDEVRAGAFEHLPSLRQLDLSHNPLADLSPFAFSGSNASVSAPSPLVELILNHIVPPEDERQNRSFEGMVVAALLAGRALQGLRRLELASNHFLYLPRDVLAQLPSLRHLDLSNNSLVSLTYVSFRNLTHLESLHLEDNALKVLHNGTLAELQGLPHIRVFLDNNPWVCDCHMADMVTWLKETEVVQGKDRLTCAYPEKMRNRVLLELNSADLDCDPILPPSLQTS

B1: 53D tribody (other)
chain 1: QVQLVQSGAEVKKPGASVKVSCKASGYSFTSYYMHWVKQSPGQGLEWIGRINPNNGVTLYNQKFKDRVTMTRDTSISTAYMELSRLRSDDTAVYYCARSTMITNYVMDYWGQGTLVTVSSASTKGPSVFPLAPSSKSTSGGTAALGCLVKDYFPEPVTVSWNSGALTSGVHTFPAVLQSSGLYSLSSVVTVPSSSLGTQTYICNVNHKPSNTKVDKKVEPKSCDKTHTGPGGGSPGQVQLVQSGAELKKPGASVKVSCKASGYTFTRYTMHWVRQAPGQCLEWMGYINPSRGYTNYNQKFKDKATLTADKSTSTAYMELRSLRSDDTAVYYCARYYDDHYSLDYWGQGTLVTVSSASGGGGSGGGGSGGGGSAGDIQLTQSPSILSASVGDRVTITCRASSSVSYMNWYQQKPGKAPKRWIYDTSKVASGVPYRFSGSGSGTEYTLTISSMQPEDFATYYCQQWSSNPLTFGCGTKVEIKSG
chain 2: not shown
B2: 53G tribody (other)
chain 1: QVQLVQSGAEVKKPGASVKVSCKASGYSFTSYYMHWVKQSPGQGLEWIGRINPNNGVTLYNQKFKDRVTMTRDTSISTAYMELSRLRSDDTAVYYCARSTMITNYVMDYWGQGTLVTVSSASTKGPSVFPLAPSSKSTSGGTAALGCLVKDYFPEPVTVSWNSGALTSGVHTFPAVLQSSGLYSLSSVVTVPSSSLGTQTYICNVNHKPSNTKVDKKVEPKSCDKTHTGPGGGSPGQVQLVQSGAELKKPGASVKVSCKASGYTFTRYTMHWVRQAPGQCLEWMGYINPSRGYTNYNQKFKDKATLTADKSTSTAYMELRSLRSDDTAVYYCARYYDDHYSLDYWGQGTLVTVSSASGGGGSGGGGSGGGGSAGDIQLTQSPSILSASVGDRVTITCRASSSVSYMNWYQQKPGKAPKRWIYDTSKVASGVPYRFSGSGSGTEYTLTISSMQPEDFATYYCQQWSSNPLTFGCGTKVEIKSG
chain 2: not shown
B3: 53P tribody (other)
chain 1: QVQLVQSGAEVKKPGASVKVSCKASGYSFTSYYMHWVKQSPGQGLEWIGRINPNNGVTLYNQKFKDRVTMTRDTSISTAYMELSRLRSDDTAVYYCARSTMITNYVMDYWGQGTLVTVSSASTKGPSVFPLAPSSKSTSGGTAALGCLVKDYFPEPVTVSWNSGALTSGVHTFPAVLQSSGLYSLSSVVTVPSSSLGTQTYICNVNHKPSNTKVDKKVEPKSCDKTHTGPGGGSPGQVQLVQSGAELKKPGASVKVSCKASGYTFTRYTMHWVRQAPGQCLEWMGYINPSRGYTNYNQKFKDKATLTADKSTSTAYMELRSLRSDDTAVYYCARYYDDHYSLDYWGQGTLVTVSSASGGGGSGGGGSGGGGSAGDIQLTQSPSILSASVGDRVTITCRASSSVSYMNWYQQKPGKAPKRWIYDTSKVASGVPYRFSGSGSGTEYTLTISSMQPEDFATYYCQQWSSNPLTFGCGTKVEIKSG
chain 2: not shown

Target: T1, recombinant human 5T4 protein (5T4/His)
Experiment: ELISA
Work on B1 yielded an EC50 of 0.79 nM. With B2 the EC50 was 0.78 nM. For B3, the EC50 was 0.84 nM.
